The results in this text go back to PMC6521355, “Enzymatic Conversion of RBCs by α-N-Acetylgalactosaminidase from Spirosoma linguale” (Enzyme Research, 2019).

Data set [1] concerns the target Spirosoma linguale α-N-acetylgalactosaminidase (Spirosoma linguale). Kind of data set: SEC; analytical gel filtration of the tag-free purified enzyme, Zorbax GF-250 column, 30°C, TBS (50 mM Tris 150 mM NaCl) pH 7.4, 1.0 mL/min; mass from Ve/Vo against five protein standards.
The target of data set [2] is T1, S. linguale α-NAGA (SlNAGA) (Spirosoma linguale, UniProt D2QUW2).
T1 construct: gene Slin_6637; E. coli BL21(DE3); monomer 48215 Da calculated, 96 kDa dimer; primers encode N-term MPSLYTTAQ and C-term PIFGLTDVY
T1 sequence (D2QUW2 1-435): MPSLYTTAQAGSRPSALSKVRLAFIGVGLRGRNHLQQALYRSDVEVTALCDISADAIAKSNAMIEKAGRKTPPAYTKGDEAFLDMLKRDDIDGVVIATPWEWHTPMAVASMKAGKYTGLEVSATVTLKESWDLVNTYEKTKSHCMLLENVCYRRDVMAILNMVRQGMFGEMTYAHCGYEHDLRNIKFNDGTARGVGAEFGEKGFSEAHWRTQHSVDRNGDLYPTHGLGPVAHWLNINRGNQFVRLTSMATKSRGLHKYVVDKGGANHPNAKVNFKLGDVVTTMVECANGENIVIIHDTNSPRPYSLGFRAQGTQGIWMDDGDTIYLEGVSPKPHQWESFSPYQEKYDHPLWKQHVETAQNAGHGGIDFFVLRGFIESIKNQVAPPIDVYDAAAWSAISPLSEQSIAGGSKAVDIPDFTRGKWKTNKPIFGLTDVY
Kind of data set: Product inhibition of 4-nitrophenyl substrate hydrolysis, absorbance at […] nm, competitive model fit. The format is biochemical. The following applies: 20 mM sodium phosphate pH 7.0, ~22 °C.

Substrate in data set [3]: CC(=O)N[C@H]1[C@@H](Oc2ccc([N+](=O)[O-])cc2)O[C@H](CO)[C@H](O)[C@@H]1O
Kind of data set: purified protein. The format is biochemical, Spirosoma linguale. The following applies: 20 mM sodium phosphate pH 7.4, 25 °C.

As to “Spirosoma linguale α-N-acetylgalactosaminidase (enzyme)”, in data set [1], the stoichiometry N came to 2.

`CC(=O)N[C@H]1C(O)O[C@H](CO)[C@H](O)[C@@H]1O` (some centres unmarked) [N-acetylgalactosamine] had a Ki in data set [2] of 180 ± 24 µM.

B1: S. linguale α-NAGA (SlNAGA) (Spirosoma linguale DSM 74) (protein)
chain: MPSLYTTAQAGSRPSALSKVRLAFIGVGLRGRNHLQQALYRSDVEVTALCDISADAIAKSNAMIEKAGRKTPPAYTKGDEAFLDMLKRDDIDGVVIATPWEWHTPMAVASMKAGKYTGLEVSATVTLKESWDLVNTYEKTKSHCMLLENVCYRRDVMAILNMVRQGMFGEMTYAHCGYEHDLRNIKFNDGTARGVGAEFGEKGFSEAHWRTQHSVDRNGDLYPTHGLGPVAHWLNINRGNQFVRLTSMATKSRGLHKYVVDKGGANHPNAKVNFKLGDVVTTMVECANGENIVIIHDTNSPRPYSLGFRAQGTQGIWMDDGDTIYLEGVSPKPHQWESFSPYQEKYDHPLWKQHVETAQNAGHGGIDFFVLRGFIESIKNQVAPPIDVYDAAAWSAISPLSEQSIAGGSKAVDIPDFTRGKWKTNKPIFGLTDVY
notes: E. coli BL21(DE3); monomer 48215 Da calculated, 96 kDa dimer; primers encode N-term MPSLYTTAQ and C-term PIFGLTDVY
As to B1, in data set [3], the Km worked out at 1070 ± 70 µM, the kcat came to 173 s⁻¹ and the specificity constant (kcat/Km) was 163000 M⁻¹ s⁻¹.
